Legend:
AMPK = AMPK phosphorylation immunoblot in HepG2 cells; type: cell-based, human
Procedure: (§1) Mouse myoblast cells (C2C12) were maintained in high glucose DMEM/high, 10% fetal bovine serum with penicillin/streptomycin. pRK5-Dj1-HA plasmid was purchased from Addgene (#29396). Seeded cells were cultured in 6-well plates for 24 hours prior to transfection. Transfections were performed using Lipofectamine 2000 and PLUS reagent according to manufacturer instructions (Invitrogen, Carlsbad, CA). Human HepG2 cells were cultured in DMEM/low media containing 10% fetal bovine serum with penicillin/streptomycin. Mouse AML12 cells were maintained in DMEM/F12, ITS supplement (Gibco, USA), 40 ng/ml dexamethasone, and 10% fetal bovine serum with penicillin/streptomycin. For in vitro experiments, HepG2 cells were treated with or without recombinant human Dj1 protein (Novus, NBC1-18334) in serum-free media containing 25 mM glucose, 200 μM palmitic acid, and 0.25% bovine serum albumin for an indicated time.

PPARα = PPARα expression and transcriptional activity in the liver; type: in vivo, mouse; conditions: liver of NC-fed mice
Procedure: (§2) Also, the transcriptional activity of PPARα was determined to be elevated by Dj1 administration in the liver of both NC- and HFD-fed mice (FIGS. 6L, 6M, 6S, 6T). Furthermore, Dj1 elevated plasma β-hydroxybutyrate (a ketone body) levels in NC-fed mice but not in HFD-fed mice (FIG. 6N, 6U).

HFD-fed mice = experiment: Indirect calorimetry in HFD-fed mice; type: in vivo, mouse
Procedure: Elevated AMPK signaling and reduced lipid content in the liver led to the hypothesis that rDj1 might activate the whole-body energy metabolism of mouse. Therefore, the metabolic rate was determined in HFD-fed mice by indirect calorimetry.

HFD-fed C57BL/6J mice = experiment: rDj1 tail-vein injection daily for 5 days in HFD-fed mice; type: in vivo, mouse
Procedure: C57BL/10cSn-Dmd^mdx/J (001801, mdx) and C57BL/10ScSnJ (000476, WT) mice were ordered directly from The Jackson Laboratory. Different ages of mdx and WT mice were obtained. Animals were weaned 21 days after birth and had free access to food and water and were housed on 12 h light-dark cycle. C57BL/6J males were introduced to a normal diet (NC, Research Diets D15100601) or high-fat diet (HFD, Research Diets D12331), and maintained on a diet for the indicated time. The HFD diet derives 58% of its kilocalories (kcal) from fat (soybean and coconut oil), 25.5% from carbohydrates (sucrose and maltodextrin), and 16.4% from protein (casein). NASH model mice were fed for up to 28 weeks with the NASH diet (Envigo, TD.120528) and 42% fructose (Sigma, F0127) in the water (1,2). The NASH diet is composed of 405.36 g/Kg sucrose and 12.5 g/Kg cholesterol. Recombinant mouse Dj1 protein (Novus, NBP2-59523) or truncated mouse Dj1 (tDj1, GenScript) protein was intravenously injected every day for 5 days or every other day for 2 weeks. Skeletal muscle-specific Park7 knockout mice were generated by crossing Park7 flox mice with Myl1-cre mice (JAX, #024713). Mice were raised in microisolator cages with a 12 h: 12 h light: dark cycle. All procedures were performed in accordance with the Guide for Care and Use of Laboratory Animals of the National Institutes of Health, and were approved by the Animal Subjects Committee of the University of California, Los Angeles.
Cryosections (10-μm thick transverse sections of frozen muscle cut in a cryostat (Leica) at −20° C.) were subjected to hematoxylin & eosin (H&E) staining (10, 54). Liver tissues were fixed in phosphate-buffered 10% formalin and embedded in paraffin wax. Sections were cut and stained with H&E.
Plasma and liver NEFA, Cholesterol, and Triglyceride were analyzed by their respective kits (FUJIFILM Wako Diagnostics)
About 80 mg of liver samples were homogenized and sonicated in PBS (pH 7.4) for lipid extraction. An internal standard mixture (ISTD) and CHCl3:methanol (2:1) were added to the samples before being vortexed, mixed, sonicated, and centrifuged. The supernatant containing the lipid was removed and dried, the lipids were resuspended in ethanol and then sonicated.
(§3) AMPK signaling is vital for lipid metabolism in the liver (19). […] These findings indicate that Dj1 could enhance lipid metabolism and ameliorate HFD-induced hepatic steatosis. rDj1 was tail-vein injected into mice fed with a chow diet (NC) or high-fat diet (HFD) daily for 5 days. […] Although body weights and fasting blood glucose levels of HFD-fed mice were unchanged during the rDj1 administration, rDj1 indeed enhanced glucose homeostasis and insulin action, as evidenced by improving glucose tolerance tests and insulin tolerance tests, respectively (FIGS. 4K-4M, 4U-4Z).

HepG2 cells [1] = experiment: Reactive oxygen species in HepG2 cells; type: cell-based, human; conditions: baseline and TNFα-induced
Text: (§4) A wide variety of mechanisms activate the JNK pathway. […] Moreover, ASK1 is activated by various stresses, including oxidative stress, ER stress, calcium overload, and receptor-mediated inflammatory signals such as TNFα and lipopolysaccharide (LPS) (26,27). rDj1 administration suppressed both baseline and TNFα-induced ROS levels in HepG2 cells, which may contribute to reducing liver inflammation (FIG. 6F).

HepG2 cells [2] = experiment: OCR/ECAR and mitochondrial ATP production in HepG2 cells; type: cell-based, human
Procedure: as §1

AMPK signaling = experiment: RNA sequencing analysis of HepG2 cells; type: cell-based, human
ACC = ACC phosphorylation immunoblot in HepG2 cells; type: cell-based, human
Procedure: as §1

HepG2 cells [3] = experiment: Fatty acid oxidation and lipid content in HepG2 cells; type: cell-based, human
Procedure: as §1, §3

[4] = tested on: liver inflammation, de-novo lipogenesis and gluconeogenesis genes; experiment: Gene expression in the liver of NC- or HFD-fed mice; type: in vivo, mouse
Procedure: as §4, §2

JNK = JNK phosphorylation immunoblot in liver of HFD-fed mice; type: in vivo, mouse
Text: As described above, Dj1 administration stimulates AMPK phosphorylation in the liver cells. However, elevated AMPK phosphorylation in vivo was not observed (data not shown). Numerous studies have reported that the c-Jun N terminal kinase (JNK) is critical to the development of steatosis and chronic liver injury in NAFLD (22-25). […] However, not all MAPK pathways were activated. For example, phosphorylation of p42 was not altered by tDj1 treatment (FIG. 6O). Both rDj1 and tDj1 suppressed TNFα and Anisomycin-induced JNK (p54 and p46) phosphorylation in human HepG2 and mouse AML12 liver cells, respectively (FIGS. 6C-6D).

B1: rDj1: full-length recombinant Dj1 protein; mouse protein (Novus, NBP2-59523) injected in mice, human protein used in HepG2 cells (protein, UniProt Q99LX0 1-189, looked up)
chain: MASKRALVILAKGAEEMETVIPVDVMRRAGIKVTVAGLAGKDPVQCSRDVMICPDTSLEDAKTQGPYDVVVLPGGNLGAQNLSESPMVKEILKEQESRKGLIAAICAGPTALLAHEVGFGCKVTTHPLAKDKMMNGSHYSYSESRVEKDGLILTSRGPGTSFEFALAIVEALVGKDMANQVKAPLVLKD
modifications: full-length
notes: full-length recombinant Dj1 protein; mouse protein (Novus, NBP2-59523) injected in mice, human protein used in HepG2 cells
AMPK
  phosphorylation of AMPK: elevated
PPARα
  transcriptional activity of PPARα: elevated
HFD-fed mice
  energy expenditure (EE): elevated
  oxygen consumption (VO2): elevated
  respiratory exchange ratio (RER): reducing
HFD-fed C57BL/6J mice; 0.15 mg/kg/day IV for 5 days
  TGs levels in the liver: decreasing
  glucose tolerance tests: improving
  insulin tolerance tests: improving
HFD-fed C57BL/6J mice; daily for 5 days
  liver H&E staining, lipids: fewer lipids
HFD-fed C57BL/6J mice; during rDj1 administration
  body weights: unchanged
  fasting blood glucose levels: unchanged
HepG2 cells [1]
  ROS levels: suppressed
HepG2 cells [2]
  mitochondrial ATP production rate: enhanced
  oxygen consumption rate/extracellular acidification rate (OCR/ECAR): enhanced
AMPK signaling
  AMPK signaling (RNA sequencing analysis): upregulated
ACC
  phosphorylation of ACC: elevated
HepG2 cells [3]
  Oil Red O staining (neutral lipids): reduced
  fatty acid oxidation: significantly promoted
  triacylglycerol (TG) levels: reduced
[4]; liver of HFD-fed mice
  reduction of gene expression of de-novo lipogenesis: blunted
  reduction of gene expression of gluconeogenesis: blunted
[4]; liver of NC-fed mice
  gene expression of de-novo lipogenesis: reduced
  gene expression of gluconeogenesis: reduced
JNK
  JNK (p46 subunit) phosphorylation: significantly reduced
